Values belong to the molecule of their own block, whether it stands above or below them.
Legend:
Human IgM = Human IgM (Homo sapiens, UniProt P01871); test: IgM binding assay (human IgM)
mIgM = target: T1, mIgM (Mus musculus, UniProt P01872); test: IgM binding ELISA (mouse IgM); details: mIgM-coated ELISA; half-log dilution 10 μg/ml-0.01 μg/ml
T1 sequence (P01872 1-454): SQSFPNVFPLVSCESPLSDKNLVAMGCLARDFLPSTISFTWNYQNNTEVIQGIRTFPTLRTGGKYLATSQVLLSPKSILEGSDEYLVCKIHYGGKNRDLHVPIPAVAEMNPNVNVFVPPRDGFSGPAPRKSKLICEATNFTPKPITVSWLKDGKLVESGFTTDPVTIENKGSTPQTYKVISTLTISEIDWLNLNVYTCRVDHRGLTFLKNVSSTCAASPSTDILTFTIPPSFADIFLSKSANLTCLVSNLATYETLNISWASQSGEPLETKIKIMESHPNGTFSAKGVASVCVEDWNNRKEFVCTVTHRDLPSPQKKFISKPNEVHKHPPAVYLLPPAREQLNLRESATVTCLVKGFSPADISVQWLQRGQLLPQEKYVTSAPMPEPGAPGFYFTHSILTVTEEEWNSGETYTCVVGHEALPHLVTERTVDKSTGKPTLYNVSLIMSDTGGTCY
Protocol: Reactivity of the DVD-Ig proteins with mIgM was determined by enzyme-linked immunosorbent assay (ELISA). Briefly, each well of an Ultra Cruz 96 well microtiter plate (Santa Cruz Biotechnology, Dallas, Tex.) was coated with mIgM at a concentration of 1 μg/ml in 100 μl of PBS. The plate was covered in plastic wrap and incubated overnight at 4° C. Each well of the plate was then washed 3× with 300 μl of PBST. After the final wash, 200 μl of blocking buffer (1% BSA in PBS) was added to each well and the plate incubated at RT for 2 hours. The plate was then washed as above. Rows B-H of the microtiter plate were filled with 100 μl of dilution buffer (1% BSA in PBST). The DVD-Ig proteins were then diluted to […] in dilution buffer and 147 μl of a DVD-Ig protein was added in duplicate to row A of a 96 well plate. For a ½ log dilution, 47 μl was transferred from row A to row B. The pipette tips were replaced with clean tips and 47 μl from row B was transferred to row C. The serial transfers were repeated as above until row G. To assess the binding of the secondary detection reagent to the coated IgM, the final transfer 47 μl was only transferred from G1-G10 to H1-H10 and wells H11 and H12 were left containing 100 μl of dilution buffer. To maintain a 100 μl assay volume, 47 μl was removed from wells H1-H10 and G11-G12 and discarded. After the serial dilution was completed, the plate was incubated for 1-2 hours at RT. The plate was washed as above and then 100 μl of horseradish peroxidase conjugated goat α-hIgG Fc specific, diluted 1:3,000 in dilution buffer, was added to each well. The plate was incubated for 1 hour at RT and then washed 4× as above. The plate was developed by adding 100 μl of 3′,3′,5′,5′-Tetramethylbenzidine (TMB) substrate solution to each well and incubating the plate in the dark for 10-15 minutes. The enzymatic reaction was stopped by adding 100 μl of 1M H2SO4 to each well. The plate was read at 450 nm on an EnVision 2102 multilabel reader (Perkin Elmer, Waltham, Mass.).
DVD-Ig proteins DVD3751-DVD3760 were characterized by IgM binding assay at half-log dilution starting at 10 μg/ml-0.01 μg/ml according to the method of Example 2.5.
IgM binding ELISA: Titrations of the DVD-Ig™ proteins (10 μg/ml to 0.01 μg/ml) were added to ELISA plates coated with murine IgM. Bound antibody was detected with biotinylated anti-human IgG and streptavidin-HRP. EC50 were calculated from the titration curve using Prism6.

DNA = test: Antinuclear antibody (ANA) test; assay type: binding; parameters: key to ANA score, relative result: (X)-(XXX) indicates relative results; (XX): (X)-(XXX) indicates relative results; (X)-(XXX) indicates relative results; details: for ANA score / ANA score, relative result: ANA staining at 10 μg/ml
Protocol: The cloned BWR4 and PA4 antibodies as well as the DVD-Ig proteins were tested for ANA reactivity using the ANA test kit. Briefly, the DVD-Ig proteins and antibodies were diluted to […] in blocking buffer (1% BSA in PBS). The DVD-Ig proteins and antibodies were added to separate wells of an ANA slide at 50 μl/well and incubated in a moist chamber for 2 hours at room temperature (RT). The wells were then washed 3× with PBS. To detect bound antibodies, Alexa Fluor 488 conjugated goat α-human IgG (α-hIgG) was then added at a dilution of 1:1,000 and the slide incubated in a moist chamber for 1 hour. Unbound detecting antibody was removed by immersing the slide in a jar containing PBS and incubating for 10 minutes at RT with gentle rocking. The prior step was repeated 2× and 10 μl of Prolong® Gold Antifade was added to each well and a 24 mm×60 mm #1 cover glass seated on top. The covered slide was incubated overnight at RT and then sealed by applying clear nail polish to the edges. Binding of the DVD-Ig proteins and antibodies to the slides was assessed by fluorescence microscopy.
DVD-Ig proteins DVD3751-DVD3760 were characterized by antinuclear antibody (ANA) staining at 10 μg/ml according to the method of Example 2.4.
ANA: HEp-2 human tissue culture substrate slides were incubated with 5 μg/ml of the anti-DNA-IgG2a or the DVD-Ig™ binding protein for 2 hours at RT. The slides were washed and bound antibodies were detected with Alexa-488 goat anti-human antibody or DyLight 488 goat anti-mouse antibody.

AM14 WT B cells = test: [3H]thymidine incorporation, BCR/TLR9 stimulation of AM14 WT B cells; assay type: cell-based, mouse; parameters: key to 3H incorporation AM14 WT, relative result: (X)-(XXX) indicates relative results; (XX): (X)-(XXX) indicates relative results; (X)-(XXX) indicates relative results; level of 3H incorporation / 3H incorporation AM14 WT: dose or concentration left out as unconfirmed; details: for 3H incorporation AM14 WT: 24 hours, then 6 hours pulse
Source text: (§1) The AM14 B cell receptor (BCR) transgenic mouse has been described previously (Sweet et al. (2010) Autoimmun 43(8): 607-18). Briefly, AM14 is a BCR comprising the AM14 heavy chain and the Vk8 light chain that recognizes murine IgG2a (mIgG2a) of the “a” allotype. Between 95-98% of B cells in a mouse positive for the AM14 heavy chain and Vk8 light chain express the AM14 BCR. To generate AM14 B cells that are deficient in TLR9, TLR7 or FcγRIIB, the AM14 and Vk8 genes were bred to the appropriate knock out mice.
(§2) Primary murine B cells were purified by positive selection using BD Imag™ CD45R/B220 magnetic particles (BD Biosciences, San Jose, Calif.). Briefly, B cells were cultured in RPMI containing, pencillin-streptomycin, β-mercaptoethanol, and 5% heat-inactivated fetal calf serum (FCS) in 96 well flat bottom plates at a density of 4×10^5 cells/well. For stimulation through the BCR and TLR9, B cells were treated with a titration of 0.3 μg/ml-0.03 μg/ml of PA4 or 5 μg/ml to 0.15 μg/ml of a DVD-Ig protein (DVD3751, DVD3752, DVD3754, DVD3755, DVD3759 and DVD3760), unless otherwise noted. Cells were also treated with 1 μg/ml 1826, an experimental ligand for TLR9, as a control. After 24 hours, the cells were pulsed for 6 hours with [3H]thymidine (Perkin Elmer, Waltham Mass.). Incorporation of [3H]thymidine was quantified via a liquid scintillation beta counter (Trilux 1450 MicroBeta, PerkinElmer) according to standard methods.
(§3) DVD-Ig proteins DVD3751-DVD3760 were characterized by ^3H incorporation at […] according to the method of Example 2.6.

AM14 TLR9−/− B cells = test: [3H]thymidine incorporation, BCR/TLR9 stimulation of AM14 TLR9-/- B cells; assay type: cell-based, mouse; details: at 5 mg/ml; 24 hours, then 6 hours pulse
Source text: as §1, §2, §3

Human IgM, sequence (P01871 1-433 limits assumed): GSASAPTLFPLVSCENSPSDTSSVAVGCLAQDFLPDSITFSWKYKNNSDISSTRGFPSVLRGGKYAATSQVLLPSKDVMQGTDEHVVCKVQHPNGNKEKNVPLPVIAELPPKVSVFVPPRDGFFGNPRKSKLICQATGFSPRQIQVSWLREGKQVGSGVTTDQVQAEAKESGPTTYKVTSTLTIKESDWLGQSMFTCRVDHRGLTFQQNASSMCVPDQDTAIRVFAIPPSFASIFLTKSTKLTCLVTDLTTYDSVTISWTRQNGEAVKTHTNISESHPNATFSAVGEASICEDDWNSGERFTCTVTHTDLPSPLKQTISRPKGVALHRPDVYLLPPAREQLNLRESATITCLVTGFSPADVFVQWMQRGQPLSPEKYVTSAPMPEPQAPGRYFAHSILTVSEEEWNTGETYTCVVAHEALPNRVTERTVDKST
Human IgM, sequence (P01591 23-159 partner): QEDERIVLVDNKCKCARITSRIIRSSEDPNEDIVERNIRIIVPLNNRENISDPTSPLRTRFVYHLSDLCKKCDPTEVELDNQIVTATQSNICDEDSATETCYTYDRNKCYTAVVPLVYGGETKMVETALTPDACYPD

potency in human IgM binding assay (Human IgM): highest potency
B1: DVD3767: DVD-Ig: VD1 hIgM (HB-57.3), SS linker, VD2 DNA (PA4); heavy SEQ ID NO 78, light 79 (antibody)
heavy: QVQLQQPGAEFVKPGAPVKLSCKASGYPFTTYWVNWMKQRPGRGLEWIGRIDPYDSETLYNQKFKDKATLTVDKSSSTAYIQLSSLTSEDSAVYYCARETYDYPFAYWGQGTLVTVSSASTKGPEVQLVESGGGLVKPGGSLKLSCVASGFTFSTYAMSWVRQTPTKRLEWVATISRGGVSTYYPDTVKGRFTISRDNAKNTLYLQMSSLRSEDTAMYYCARPPTIVTTWFAYWGQGTLVTVSS
light: DIVMTQSPSSLAMSVGQKVTMSCKSSQSLLNSSNQKNYLAWYQQKPGQSPELLVYFASTRESGVPDRFIGSGSGTDFTLTISSVQAEDLADYFCQQHYSTPFTFGSETKLEIKRTVAAPDVVMTQTPLSLPVSLGDQASISCRSSQSLVHSNGNTYLHWYLQKPGQSPKLLIYKVSNRFSGVPDRFSGSGSGTDFTLKISRVEAEDLGAYFCSQSTHVPYTFGGPTRLEIKR

potency in human IgM binding assay (Human IgM): highest potency
B3: DVD3766: DVD-Ig: VD1 hIgM (HB-57.3), GS linker, VD2 DNA (PA4); heavy SEQ ID NO 76, light 77 (antibody)
heavy: QVQLQQPGAEFVKPGAPVKLSCKASGYPFTTYWVNWMKQRPGRGLEWIGRIDPYDSETLYNQKFKDKATLTVDKSSSTAYIQLSSLTSEDSAVYYCARETYDYPFAYWGQGTLVTVSSGGGGSGGGGSEVQLVESGGGLVKPGGSLKLSCVASGFTFSTYAMSWVRQTPTKRLEWVATISRGGVSTYYPDTVKGRFTISRDNAKNTLYLQMSSLRSEDTAMYYCARPPTIVTTWFAYWGQGTLVTVSS
light: DIVMTQSPSSLAMSVGQKVTMSCKSSQSLLNSSNQKNYLAWYQQKPGQSPELLVYFASTRESGVPDRFIGSGSGTDFTLTISSVQAEDLADYFCQQHYSTPFTFGSETKLEIKRGGSGGGGSGDVVMTQTPLSLPVSLGDQASISCRSSQSLVHSNGNTYLHWYLQKPGQSPKLLIYKVSNRFSGVPDRFSGSGSGTDFTLKISRVEAEDLGAYFCSQSTHVPYTFGGPTRLEIKR

More lines, now with the values behind:

B2: DVD3755: DVD-Ig: VD1 DNA(PA4), LS linker, VD2 mIgM (B7.6); heavy SEQ ID NO 56, light 57 (antibody)
heavy: EVQLVESGGGLVKPGGSLKLSCVASGFTFSTYAMSWVRQTPTKRLEWVATISRGGVSTYYPDTVKGRFTISRDNAKNTLYLQMSSLRSEDTAMYYCARPPTIVTTWFAYWGQGTLVTVSSASTKGPSVFPLAPQVQLKESGPGLVKPSLTLSLTCTVSGFSLNGYGVIWVRQPPGKGLEWMGVIWGNGNTNYNSTLKSRLSISRDTSKSQVFLKMNNLQTEDTAMYFCARSENYYSSPGYFAYWGQGTLVTVSS
light: DVVMTQTPLSLPVSLGDQASISCRSSQSLVHSNGNTYLHWYLQKPGQSPKLLIYKVSNRFSGVPDRFSGSGSGTDFTLKISRVEAEDLGAYFCSQSTHVPYTFGGPTRLEIKRTVAAPNTVMTQSPTSMFISVGDRVTMNCKASQNVGSDVDWYQQKTGQSPKLLISGTSNRYTGVPDRFTGSGSGTDFTLTISNMQAEDLAVYYCLQYNYNPTFGAGTKLELKR
IgM Binding EC50 (mIgM): 0.09709 µg/mL
level of ANA staining (DNA; 10 μg/ml, among DVD3751-DVD3760): highest level of staining
ANA score (DNA): 4.5
ANA score, relative result (DNA): (XXX)
3H incorporation AM14 WT, relative result (AM14 WT B cells): (X)
3H incorporation AM14 WT (AM14 WT B cells): (8498)
3H incorporation AM14 TLR9−/− (AM14 TLR9−/− B cells): (402)

B4: DVD3751: DVD-Ig: VD1 DNA(PA4), GS linker, VD2 mIgM (B7.6); heavy SEQ ID NO 48, light 49 (antibody)
heavy: EVQLVESGGGLVKPGGSLKLSCVASGFTFSTYAMSWVRQTPTKRLEWVATISRGGVSTYYPDTVKGRFTISRDNAKNTLYLQMSSLRSEDTAMYYCARPPTIVTTWFAYWGQGTLVTVSSGGGGSGGGGSQVQLKESGPGLVKPSLTLSLTCTVSGFSLNGYGVIWVRQPPGKGLEWMGVIWGNGNTNYNSTLKSRLSISRDTSKSQVFLKMNNLQTEDTAMYFCARSENYYSSPGYFAYWGQGTLVTVSS
light: DVVMTQTPLSLPVSLGDQASISCRSSQSLVHSNGNTYLHWYLQKPGQSPKLLIYKVSNRFSGVPDRFSGSGSGTDFTLKISRVEAEDLGAYFCSQSTHVPYTFGGPTRLEIKRGGSGGGGSGNTVMTQSPTSMFISVGDRVTMNCKASQNVGSDVDWYQQKTGQSPKLLISGTSNRYTGVPDRFTGSGSGTDFTLTISNMQAEDLAVYYCLQYNYNPTFGAGTKLELKR
IgM Binding EC50 (mIgM): 0.1909 µg/mL
ANA score (DNA): 2
ANA score, relative result (DNA): (X)
3H incorporation AM14 WT, relative result (AM14 WT B cells): (XXX)
3H incorporation AM14 WT (AM14 WT B cells): (35554)
level of 3H incorporation (AM14 WT B cells; among DVD3751-DVD3760): highest level of ^3H incorporation
3H incorporation AM14 TLR9−/− (AM14 TLR9−/− B cells): (1184)

Source: patent US20150125397A1, “DUAL SPECIFIC BINDING PROTEINS DIRECTED AGAINST IMMUNE CELL RECEPTORS AND AUTOANTIGENS” (ABBVIE INC., priority 2013, published 2015)
